The results in this text go back to paper PMC9597352.

This experiment deals with T1, GST-Arl8b, Q9NVJ2.
T1 chain: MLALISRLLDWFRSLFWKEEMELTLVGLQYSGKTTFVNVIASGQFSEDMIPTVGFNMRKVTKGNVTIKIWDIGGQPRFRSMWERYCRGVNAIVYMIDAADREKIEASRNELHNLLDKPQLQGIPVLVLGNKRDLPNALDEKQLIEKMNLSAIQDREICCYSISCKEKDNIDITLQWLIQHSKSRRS
Put plainly: pull-down; GST-Arl8b on glutathione-agarose beads loaded with 20 mM GTP (TAP lysis buffer, 10 mM MgCl2, 30 min, 4°C), then HEK293T lysates of transfected cells, 2 h, 4°C; anti-FLAG blot. To be noted: remark: other sources report otherwise.

B1: RUFY3-FLAG, Q7L099 1-469 (natural protein)
chain: MSALTPPTDMPTPTTDKITQAAMETIYLCKFRVSMDGEWLCLRELDDISLTPDPEPTHEDPNYLMANERMNLMNMAKLSIKGLIESALNLGRTLDSDYAPLQQFFVVMEHCLKHGLKAKKTFLGQNKSFWGPLELVEKLVPEAAEITASVKDLPGLKTPVGRGRAWLRLALMQKKLSEYMKALINKKELLSEFYEPNALMMEEEGAIIAGLLVGLNVIDANFCMKGEDLDSQVGVIDFSMYLKDGNSSKGTEGDGQITAILDQKNYVEELNRHLNATVNNLQAKVDALEKSNTKLTEELAVANNRIITLQEEMERVKEESSYILESNRKGPKQDRTAEGQALSEARKHLKEETQLRLDVEKELEMQISMRQEMELAMKMLEKDVCEKQDALVSLRQQLDDLRALKHELAFKLQSSDLGVKQKSELNSRLEEKTNQMAATIKQLEQSEKDLVKQAKTLNSAANKLIPKHH
Take B1: the pulldown relative to RUFY1 (densitometry, normalized to input) is 2 fold.
